# Measured values reported in paper PMC4140816 (PLoS ONE, 2014).
# Ends that are not written are not given here.
# B1: VSL12 peptide (peptide)
# peptide: VSLARRPLPPLP
# modifications: also: biotin (site not given here)
# notes: Biotinylated for immobilisation in SPR; source: synthetic peptide (University of Pittsburgh Peptide Synthesis Core)
# Assays:
# VSL12 peptide [1] = biological target: B1; experiment: SPR; same runs as a1 (biotinylated VSL12 on a streptavidin chip, 25°C, HBS-EP); equilibrium responses against analyte concentration, steady state model; conditions: both partners purified
# VSL12 peptide [2] = biological target: B1; experiment: SPR; Biacore 3000; biotinylated VSL12 immobilised to 80 RU on a streptavidin chip; domain proteins flowed in duplicate at 25°C in HBS-EP (10 mM HEPES pH 7.4, 150 mM NaCl, 3 mM EDTA, 0.05% P20); 180 s association, 300 s dissociation; double referenced; kinetic fit, 1:1 Langmuir model; conditions: both partners purified
# Fyn-YEEI = Fyn-YEEI (human, phosphotyrosine in the C-terminal tail (pTyr-Glu-Glu-Ile-Pro)); experiment: cell-based or functional assay
# Lyn-YEEI = Lyn-YEEI (human, phosphotyrosine in the C-terminal tail (pTyr-Glu-Glu-Ile-Pro)); experiment: cell-based or functional assay
# c-Src SH3 domain [3] = biological target: T1, c-Src SH3 domain (human, UniProt P12931-1 81-142); experiment: SPR; same runs as a1 (biotinylated VSL12 on a streptavidin chip, 25°C, HBS-EP); equilibrium responses against analyte concentration, steady state model; conditions: both partners purified
# T1 construct: human c-Src, SH3 domain, residues 81-142; Cloned into pET21a through NdeI and XhoI; source: E. coli Rosetta 2(DE3)pLysS, purified (anion exchange, IMAC, SEC)
# c-Src SH3 domain [4] = biological target: T1, c-Src SH3 domain; experiment: SPR; Biacore 3000; biotinylated VSL12 immobilised to 80 RU on a streptavidin chip; domain proteins flowed in duplicate at 25°C in HBS-EP (10 mM HEPES pH 7.4, 150 mM NaCl, 3 mM EDTA, 0.05% P20); 180 s association, 300 s dissociation; double referenced; kinetic fit, 1:1 Langmuir model; conditions: both partners purified
Binder,Kd (VSL12 peptide [1]) [nM],Kd (VSL12 peptide [2]) [nM],koff (VSL12 peptide [2]) [s⁻¹],kon (VSL12 peptide [2]) [M⁻¹ s⁻¹],"Kact: VSL12 concentration at half-maximal activation of kinase activity (ADP Quest kinetic kinase assay, VSL12 0.1 to 300 µM, basal rate subtracted) (Fyn-YEEI) [µM]","Kact: VSL12 concentration at half-maximal activation of kinase activity (ADP Quest kinetic kinase assay, VSL12 0.1 to 300 µM, basal rate subtracted) (Lyn-YEEI) [µM]",Kd (c-Src SH3 domain [3]) [nM],Kd (c-Src SH3 domain [4]) [nM]
Lyn SH3 domain (domain or fragment) EQGDIVVALYPYDGIHPDDLSFKKGEKMKVLEEHGEWWKAKSLLTKKEGFIPSNYVAKLNT,562,647,0.137,212000,,,,
B1,,,,,24.9,4.03,4000,3420
